Assay results taken from PMC3995750, “Improved production of recombinant human Fas ligand extracellular domain in Pichia pastoris: yield enhancement using disposable culture-bag and its application to site-specific chemical modifications” (BMC Biotechnology, 2014).

T1: wild-type human Fas receptor extracellular domain fused to human IgG1-Fc domain with a thrombin cleavage site … (human, UniProt P25445 26-173)
T1 construct: human Fas receptor, extracellular domain; A thrombin cleavage site lies between the receptor part and the Fc; also called wild-type hFasRECD-T-Fc; hFasRECD-T-Fc
T1 sequence (looked up): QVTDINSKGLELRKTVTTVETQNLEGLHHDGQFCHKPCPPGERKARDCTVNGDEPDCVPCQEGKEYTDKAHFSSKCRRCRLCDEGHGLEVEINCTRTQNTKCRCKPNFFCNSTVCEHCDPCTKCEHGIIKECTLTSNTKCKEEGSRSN

B1: NFG1CG4-tagged human Fas ligand extracellular domain (139-281, N184Q, N250Q), not conjugated (domain or fragment, UniProt P48023 139-281, looked up)
chain: EKKELRKVAHLTGKSNSRSMPLEWEDTYGIVLLSGVKYKKGGLVIQETGLYFVYSKVYFRGQSCNNLPLSHKVYMRNSKYPQDLVMMEGKMMSYCTTGQMWARSSYLGAVFQLTSADHLYVNVSELSLVNFEESQTFFGLYKL
modifications: cysteine in the N-terminal tag, partly in a possible inter-subunit disulfide bond
notes: human Fas ligand (281 aa), residues 139-281 with N184Q and N250Q; Made from the NFG5-hFasLECD gene by an insertion mutation that adds a cysteine in the (Gly)5 region of the tag; also called NFG1CG4-hFasLECD; source: Pichia pastoris GS115 (Mut+), secreted; 40-fold concentrated culture supernatant; partially purified by cation-exchange chromatography; not shown: FLAG-GlyCys(Gly)4, N-terminal, kept
B2: tag-free human Fas ligand extracellular domain (139-281, N184Q, N250Q), N-glycan untrimmed (domain or fragment, UniProt P48023 139-281, looked up)
chain: B1 chain
modifications: remaining N-glycans, untrimmed
notes: human Fas ligand (281 aa), extracellular domain with residues 103-138 deleted, i.e. residues 139-281, with N184Q and N250Q; Secreted with the S. cerevisiae alpha-factor prepro signal; also called tag-free hFasLECD; N-glycan untrimmed tag-free hFasLECD; source: Pichia pastoris GS115 (Mut+), secreted, purified (two rounds of cation-exchange chromatography)
B3: NFG1CG4-hFasLECD cross-linked with SUNBRIGHT DE-100MA, peak II of the size-exclusion chromatography (domain or fragment, human, UniProt P48023 139-281, looked up)
chain: B1 chain
modifications: cysteine in the N-terminal tag conjugated with SUNBRIGHT DE-100MA (linear polyethylene glycol of about 10 kDa with a maleimide group at either end): two subunits cross-linked by one molecule, or one subunit conjugated with one molecule; unreacted cysteines capped with N-Ethylmaleimide
notes: human Fas ligand (281 aa), residues 139-281 with N184Q and N250Q; not shown: FLAG-GlyCys(Gly)4, N-terminal, kept
B4: NFG1CG4-hFasLECD cross-linked with SUNBRIGHT DE-100MA, peak III of the size-exclusion chromatography (domain or fragment, human, UniProt P48023 139-281, looked up)
chain: B1 chain
modifications: cysteine in the N-terminal tag conjugated with SUNBRIGHT DE-100MA (linear polyethylene glycol of about 10 kDa with a maleimide group at either end): two subunits cross-linked by one molecule, or one subunit conjugated with one molecule; unreacted cysteines capped with N-Ethylmaleimide
notes: as for B3
B5: N-glycan trimmed tag-free human Fas ligand extracellular domain (139-281, N184Q, N250Q) (domain or fragment, UniProt P48023 139-281, looked up)
chain: B1 chain
modifications: N-glycans trimmed with Endo Hf
notes: human Fas ligand (281 aa), residues 139-281 with N184Q and N250Q; Same chain as m1 after Endo Hf digestion; also called N-glycan trimmed tag-free hFasLECD; source: Pichia pastoris GS115 (Mut+), secreted, purified; digested with Endo Hf, Con A-agarose flow-through, Mono S cation-exchange
B6: N-terminal FLAG-(Gly)5 tagged human Fas ligand extracellular domain (aa 139-281, N184Q, N250Q) (domain or fragment, UniProt P48023 139-281, looked up)
chain: B1 chain
notes: human Fas ligand (281 aa), residues 139-281 with N184Q and N250Q; Positive control of the co-immunoprecipitation; also called NFG5-hFasLECD; not shown: FLAG-(Gly)5, N-terminal, kept
B7: N-Ethylmaleimide conjugated NFG1CG4-hFasLECD (domain or fragment, human, UniProt P48023 139-281, looked up)
chain: B1 chain
modifications: cysteine in the N-terminal tag conjugated with N-Ethylmaleimide
notes: human Fas ligand (281 aa), residues 139-281 with N184Q and N250Q; also called N-Ethylmaleimide adduct of NFG1CG4-hFasLECD; not shown: FLAG-GlyCys(Gly)4, N-terminal, kept
B8: SUNBRIGHT ME-050MA conjugated NFG1CG4-hFasLECD (domain or fragment, human, UniProt P48023 139-281, looked up)
chain: B1 chain
modifications: cysteine in the N-terminal tag conjugated with SUNBRIGHT ME-050MA (linear methoxy polyethylene glycol of about 5 kDa with one maleimide group); a small fraction of subunits not conjugated
notes: human Fas ligand (281 aa), residues 139-281 with N184Q and N250Q; also called SUNBRIGHT ME-050MA adduct of NFG1CG4-hFasLECD; not shown: FLAG-GlyCys(Gly)4, N-terminal, kept

Target: the molecule itself
Experiment: SDS-PAGE with and without 2-mercaptoethanol; partially purified NFG1CG4-hFasLECD (main peak of the 1st cation-exchange chromatography, concentrated) in sample buffer with or without 2-mercaptoethanol; inter-subunit disulfide bond
Details: not given

Binding result, binds:
B1

target: T1, wild-type human Fas receptor …; experiment: co-IP; receptor-mediated ligand immunoprecipitation: purified hFasLECD sample with hFasRECD-T-Fc protein and Protein A-agarose beads (immunoprecipitation kit, Roche); precipitate analysed by SDS-PAGE; details: both partners purified

Binding result, binds:
B2
B3
B4
B5
B6
B7
B8
